Drawing on publication PMC6708749, this text covers stoichiometry N for five substances.

Holding throughout (test): SEC
On the technique in general: Size exclusion chromatography separates by hydrodynamic size, large species first.

Test [1] deals with ELIC-α1GABAAR chimera, Q242L mutant (Erwinia chrysanthemi | human).
Test [2] has as its target ELIC-α1GABAAR chimera, Q242W mutant (Erwinia chrysanthemi | human).
Test [3] concerns the target ELIC-α1GABAAR chimera, W246L mutant (Erwinia chrysanthemi | human).
In test [4] the target is ELIC-α1GABAAR chimera, WT (Erwinia chrysanthemi | human).

Broadly, the stoichiometry N is a count of units in the complex or per binding partner. The substance ELIC-α1GABAAR chimera, Q242L mutant registered a stoichiometry N in test [1] of 5.

In test [2], ELIC-α1GABAAR chimera, Q242W mutant displayed a stoichiometry N of 5.

Consider ELIC-α1GABAAR chimera, W246L mutant, for which the stoichiometry N in test [3] came out at 5.

On to ELIC-α1GABAAR chimera, WT, for which the stoichiometry N in test [4] was 5.

For ELIC-β3GABAAR chimera, the stoichiometry N in test [4] is 5.
